Results reported in paper PMC13279940.

Target: Pseudomonas aeruginosa QatC with C-terminal 6xHis tag (Pseudomonas aeruginosa)
Assay: mass photometry; Refeyn TwoMP; purified protein diluted to 200 nM in gel filtration buffer (20 mM HEPES-KOH pH 7.5, 250 mM KCl, 1 mM TCEP), 1 uL mixed into a 16 uL drop; QatA in the absence of DNA

Pseudomonas aeruginosa QatB (natural protein)
stoichiometry N: 1
